The record followed here is the nanobody polyreactivity screen of Harvey et al. (2022).

This data set is described as follows: yeast display, Sf9 membrane polyspecificity reagent, FACS + sequencing; frameworks hold sequencing errors. The procedure, abridged:
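After 36–48 hours of galactose induction, yeast (Saccharomyces cerevisiae BJ5465) displaying a synthetic nanobody library were stained at 4 °C for 1 hour with 10% biotinylated, detergent-solubilized Sf9 membrane reagent. Streptavidin microbeads enriched the stained cells before FACS sorting into low and high (top ~1%) gates on anti-HA and streptavidin fluorescence. Each clone's polyreactivity label reflects its gate of origin.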
Regarding “QVQLVESGGGLVQAGGSLRLSCAASGFTFSYYAMGWYRQAPGKERELVAAISGSGTRTYYADSVKGRFTISRDNAKNTVYLQMNSLKPEDTAVYYCAADLYVTYDYWGQGTQVTVSS”, the “polyreactivity (PSR sort gate)” value is reported as “high polyreactivity”.
The entry for “QVQLVESGGGLVQAGGSLRLSCAASGFTFSYYAMGWYRQAPGKERELVAAISSGGSTYYADSVKGRFTISRDNAKNTVYLQMNSLKPEDTAVYYCNVLNYSSRHYLFSYDYWGQGTQVTVSS” is “high polyreactivity”.
In the case of “QVQLVESGGGLVQAGGSLRLSCAASGFTFTAYAMGWYRPAPGKERELVAAISYRGGRTNYAYSVKGRFTISRDNAKNTVYLQMNSLKPEDTAVYYCAARPRISTREMDYWGQGTQVTVSS” it was “high polyreactivity”; in that of “QVQLVESGGGLVQAGGSLRLSCAASGFTFTAYAMGWYRQAPGKERELVAAINWSGSRTYYADSVKGRFTISRDHAKNTVYLQMNSLKPEDTAVYYCNTATSKSSYRHYDYWGQGTQVTVSS”, “high polyreactivity”; in that of “QVQLVESGGGLVQAGGSLRLSCAASGFTFTAYAMGWYRQEPGKERELVAAITGTGGSTKYADSVKGRFTISRDNATNTVYLQMNSLKPEDTAVYYCAKRYRLRGRYDYWGQGTQVTVSS”, “high polyreactivity”.
On to “QVQLVESGGGLVQAGGSLRLSCAASGFTFTDYAMGWYRQAPGKERELVAAITSGDSTYYADSVKGRFTISRDNAKNTVYLQMNSLKPEDTAVYYCNKLRRSPNSQYYYWGQGTQVTVSS”, for which the “polyreactivity (PSR sort gate)” value is recorded as “high polyreactivity”.
Consider “QVQLVESGGGLVQAGGSLRLSCAASGFTFTFNAMGWYRQEPGKEREFVAAITWSGGSTYYADSVKGRFTISRDNAKNTVYLQMNSLKPEDTAVYYCAARLYRSFTFNYWGQGTQVTVSS”, for which the “polyreactivity (PSR sort gate)” value is “high polyreactivity”.
On to “QVQLVESGGGLVQAGGSLRLSCAASGFTFTGYAMGWYRQAPGKERELVAAITRGGGSTYYADSVKGRFTISRDNAKNTVYLQMNSLKPEDTAVYYCAAQRSRLIRISSPYYGHDYWGQGTQVTVSS”, for which the “polyreactivity (PSR sort gate)” value is on record as “low polyreactivity”.
Regarding “QVQLVESGGGLVQAGGSLRLSCAASGFTFTGYAMGWYRQAPGKERELVAVISETGGSTYADSVKGRFTISRDNAKNTVYLQMNSLKPEDTAVYYCNARSGYYLRYYDYDYWGQGTQVTVSS”, the “polyreactivity (PSR sort gate)” value is “low polyreactivity”.
For “QVQLVESGGGLVQAGGSLRLSCAASGFTFTHYAMGWYRQAPGKERELVAAITDTGGGTYYADSVKGRFTISRDTAKNTVYLQMNSLKPEDTAVYYCAKPTSYRGYYSWGQGTQVTVSS”, the “polyreactivity (PSR sort gate)” value was “high polyreactivity”.
Take “QVQLVESGGGLVQAGGSLRLSCAASGFTFTKYAMGWYRQAPGKERELVAAITSGTSTYYADSVKGRFTISRDNAKYTVYLQMNSLKPEVTAVYYCAAPLYGRYSYGYWGQCTQVTVSS”: the “polyreactivity (PSR sort gate)” value is “high polyreactivity”.
With “QVQLVESGGGLVQAGGSLRLSCAASGFTFTPYAMGWYRQAPGKERELVAAITSTGGSTYYADSVKGRFTISRHNAKNTVYLQMNSLKPEDAAVYYCNAATPYSWGYRRGYWGQGTQVTVSS”, the “polyreactivity (PSR sort gate)” value was “high polyreactivity”.
For the sequence “QVQLVESGGGLVQAGGSLRLSCAASGFTFTQYAMGWYRPAPGKECELVAAISRSGGSTYYADSVKGRFTISRDNAKNTVYLQMTSLKPEDTPVYYCAADWRFRYDYWGQGTQVTVSS”, the “polyreactivity (PSR sort gate)” value is “high polyreactivity”.
Turning to “QVQLVESGGGLVQAGGSLRLSCAASGFTFTRNAMGWYRQAPGKERELVAAISKRGGTTYYADSVKGRFTISRDNAKNTVYLQMNSLKPEDTAVYYCAKDGGITGGYWGQGTQVTVSS”, the “polyreactivity (PSR sort gate)” value was “high polyreactivity”.
The entry for “QVQLVESGGGLVQAGGSLRLSCAASGFTFTRYAMGWYRQAPGKERELVAAIRWSGGRTYYADSVKGRFTISRDNAKNTVYLQMNSLKPEDTAVYYCYAVFYDPRREYDYWGQGTQVTVSS” is “high polyreactivity”; for “QVQLVESGGGLVQAGGSLRLSCAASGFTFTRYAMGWYRQAPGKERELVAAITTNSGSRTYYADSVKGRFTISRDNAKNTVYLQMNSLKPEDTAVYYCAADGPVVRGYYWGQGTQVTVSS” it is “high polyreactivity”; for “QVQLVESGGGLVQAGGSLRLSCAASGFTFTRYAMGWYRQAPGKERELVAVITYSGDTSYADSVKGRFTISRDNAKNTVYLQMNSLKPEDTAVYYCAVERAYYSDTGRYGYDYWGQGTQVTVSS” it is “high polyreactivity”.
The entry for “QVQLVESGGGLVQAGGSLRLSCAASGFTFTSFAMGWYRQAPGKERELVAAISARGGRTNYADSVKGRFTISRDNAKNTVYLQKNSLKPEDTAVYYCAADGFRAAYLYDYWGQGTQVTVSS” is “high polyreactivity”; for “QVQLVESGGGLVQAGGSLRLSCAASGFTFTYNTMGWYRQAPGKERELVAAISRSGGSTYYADSVKGRFTISRDNAKNTVYLQMNSLKPEDTAVYYCAKQRRDYNGGYWGQGTQVTVSS” it is “high polyreactivity”.
In the case of “QVQLVESGGGLVQAGGSLRLSCAASGFTFTYYAMGWYRQAPGKERELVAAISWSGDSTYYADSVKGRFTISRDNAKNTVYLQMNSLKPEDTAVYYCATEYSHTYDYWGQGTQVTVSS” it was “low polyreactivity”; in that of “QVQLVESGGGLVQAGGSLRLSCAASGFTFTYYAMGWYRQAPGKERELVAVISSAGSTYYADSVKGRFTISRDNAKNTVYLQMNSLKPEDTAVYYCNAVGRYYSSGRYGHWGQGTQVTVSS”, “high polyreactivity”.
For “QVQLVESGGGLVQAGGSLRLSCAASGFTFTYYTMGWYRPAPGKERELVAGISRSGGSTYYADSVKGRFTISRDNAKNTVYLQMNSLKPEDTAVYYCFPGKTRLYGYWGQGTQVTVSS”, the “polyreactivity (PSR sort gate)” value was “high polyreactivity”.
The entry for “QVQLVESGGGLVQAGGSLRLSCAASGFTFTYYVMGWYRQAPGKDRELVAAISQGGGSTYYADSVKGRFTISRDNAKNTVYLQMNSLKPEDTAVYYCAARRVGYGTDRYYGYDSWGQGTQVTVSS” is “high polyreactivity”.
The entry for “QVQLVESGGGLVQAGGSLRLSCAASGFTFVAYAMGWYRPAPGKERELVAAIRRTDTSTYYADSVKGRFTISRDNAKNTVYLQMNSLKPEDTAVYYCAADYWRRTYLGFDYWGQGTQVTVSS” is “low polyreactivity”; for “QVQLVESGGGLVQAGGSLRLSCAASGFTFVGYAIGWYRQAPGKERDMVAAITRRGGSTYYADSVKGRFTISRDNAKNTVYLQMNSLKPEDTAVYYCNKSSYRISVPRYDYWGQGTQVTVSS” it is “high polyreactivity”.
As for “QVQLVESGGGLVQAGGSLRLSCAASGFTFVINDMGWYRQAPGKERELVADITSGGDTYYADSVKGRFTISRDNAKNTVYLQMNSLKAEDTAVYYCAADIYPDWIYLLYGYWGQGTQVTVSS”, the “polyreactivity (PSR sort gate)” value is recorded as “low polyreactivity”.
With “QVQLVESGGGLVQAGGSLRLSCAASGFTFVKNAMGWYRQAPGNERELVAAISQSGGSTYYADSVKGRFTISRDNAKNTVYLQMNSLKPEDTAVYYCAATYYTYWGYRDYYWGQGTQVTVSS”, the “polyreactivity (PSR sort gate)” value is recorded as “high polyreactivity”.
In the case of “QVQLVESGGGLVQAGGSLRLSCAASGFTFVLYAMGWYRQAPGKERELVADITEGGDNTYYADSVKGRFTISRDNAKNTVYLQMNSLKPEDTAVYYCNARASRLYPPYDYWGQGTQVTVSS” it was “high polyreactivity”; in that of “QVQLVESGGGLVQAGGSLRLSCAASGFTFVNNAMGWYRQAPGKERELVAAISGGGTTNYADSVKGRFTISRDNAKNTVYLQMNSLKPEDTAVYYCAARRYFGLWYFWYDYWGQGTQVTVSS”, “high polyreactivity”; in that of “QVQLVESGGGLVQAGGSLRLSCAASGFTFVNYAMGWYRQAPGKERELVAAISFRSARTYYADSVKGRFTISRDNAKNNVYLQMNSLKPEDTAVYYCAARVSRRFDYWGQGTQVTVSS”, “high polyreactivity”.
